Assay results: patent publication US20260275312, “CRISPR NUCLEASE POLYPEPTIDES AND GENE EDITING SYSTEMS COMPRISING SUCH” (ARBOR BIOTECHNOLOGIES, INC., published 2026)

Assays:
Details in all cases: tags: N-term SV40 NLS, XTEN linker + C-term nucleoplasmin NLS
Nuclease S = target: T1, Nuclease S (synthetic construct); assay: cell_activity; HEK293T; PAM AGCC 3'
T1 chain: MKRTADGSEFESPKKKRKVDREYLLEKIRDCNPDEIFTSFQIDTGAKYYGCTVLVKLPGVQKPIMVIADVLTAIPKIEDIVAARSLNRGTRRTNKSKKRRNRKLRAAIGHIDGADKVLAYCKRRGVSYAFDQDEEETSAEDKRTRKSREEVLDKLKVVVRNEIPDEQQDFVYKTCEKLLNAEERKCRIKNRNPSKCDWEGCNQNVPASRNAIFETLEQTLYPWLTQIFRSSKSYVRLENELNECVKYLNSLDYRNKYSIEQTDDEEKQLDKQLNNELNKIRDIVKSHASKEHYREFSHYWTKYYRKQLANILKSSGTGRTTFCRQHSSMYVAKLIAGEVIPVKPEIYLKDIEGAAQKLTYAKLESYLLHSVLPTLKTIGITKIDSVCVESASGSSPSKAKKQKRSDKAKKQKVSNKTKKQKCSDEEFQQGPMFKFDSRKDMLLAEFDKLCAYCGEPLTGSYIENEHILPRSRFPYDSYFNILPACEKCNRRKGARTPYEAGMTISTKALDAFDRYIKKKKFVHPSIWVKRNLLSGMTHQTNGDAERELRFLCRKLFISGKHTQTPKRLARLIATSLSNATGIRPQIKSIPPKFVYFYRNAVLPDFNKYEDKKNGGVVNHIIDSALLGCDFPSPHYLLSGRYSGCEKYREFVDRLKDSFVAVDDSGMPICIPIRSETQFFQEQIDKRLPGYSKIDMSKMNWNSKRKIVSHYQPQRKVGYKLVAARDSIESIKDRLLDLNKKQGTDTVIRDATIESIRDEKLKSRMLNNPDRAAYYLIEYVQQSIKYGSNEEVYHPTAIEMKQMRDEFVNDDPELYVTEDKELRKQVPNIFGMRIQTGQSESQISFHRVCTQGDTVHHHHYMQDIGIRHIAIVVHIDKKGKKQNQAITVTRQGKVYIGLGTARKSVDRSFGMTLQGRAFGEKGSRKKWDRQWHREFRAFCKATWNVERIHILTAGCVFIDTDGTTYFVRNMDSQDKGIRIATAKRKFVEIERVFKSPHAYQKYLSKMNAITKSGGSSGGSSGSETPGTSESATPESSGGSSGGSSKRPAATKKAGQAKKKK
Experimental: (§1) HEK293T cells were transfected with plasmids expressing the Nuclease S polypeptides and the gRNAs provided herein following the methods provided in Example 1 above. Gene editing efficiencies were determined by NGS following the methods also provided in Example 1. The NGS results were analyzed also following the methods provided in Example 1 above.
Each Nuclease S variant was cloned as described in Example 6. HEK293T cells were further transfected with a plasmid encoding a Nuclease S variant and a plasmid encoding an RNA guide of Table 11, followed by NGS analysis, as described in Example 5. For each target, indel ratios, referring to the percentage of NGS reads comprising indels, were calculated for the reference Nuclease S (SEQ ID NO: 49) and for each Nuclease S variant. The indel ratios shown in Table 13 were calculated as the average of two bioreplicates, each of which contained two technical replicates.

Nuclease H [1] = target: T2, Nuclease H (synthetic construct); assay: cell_activity; HEK293T; PAM GAC 3'
T2 chain: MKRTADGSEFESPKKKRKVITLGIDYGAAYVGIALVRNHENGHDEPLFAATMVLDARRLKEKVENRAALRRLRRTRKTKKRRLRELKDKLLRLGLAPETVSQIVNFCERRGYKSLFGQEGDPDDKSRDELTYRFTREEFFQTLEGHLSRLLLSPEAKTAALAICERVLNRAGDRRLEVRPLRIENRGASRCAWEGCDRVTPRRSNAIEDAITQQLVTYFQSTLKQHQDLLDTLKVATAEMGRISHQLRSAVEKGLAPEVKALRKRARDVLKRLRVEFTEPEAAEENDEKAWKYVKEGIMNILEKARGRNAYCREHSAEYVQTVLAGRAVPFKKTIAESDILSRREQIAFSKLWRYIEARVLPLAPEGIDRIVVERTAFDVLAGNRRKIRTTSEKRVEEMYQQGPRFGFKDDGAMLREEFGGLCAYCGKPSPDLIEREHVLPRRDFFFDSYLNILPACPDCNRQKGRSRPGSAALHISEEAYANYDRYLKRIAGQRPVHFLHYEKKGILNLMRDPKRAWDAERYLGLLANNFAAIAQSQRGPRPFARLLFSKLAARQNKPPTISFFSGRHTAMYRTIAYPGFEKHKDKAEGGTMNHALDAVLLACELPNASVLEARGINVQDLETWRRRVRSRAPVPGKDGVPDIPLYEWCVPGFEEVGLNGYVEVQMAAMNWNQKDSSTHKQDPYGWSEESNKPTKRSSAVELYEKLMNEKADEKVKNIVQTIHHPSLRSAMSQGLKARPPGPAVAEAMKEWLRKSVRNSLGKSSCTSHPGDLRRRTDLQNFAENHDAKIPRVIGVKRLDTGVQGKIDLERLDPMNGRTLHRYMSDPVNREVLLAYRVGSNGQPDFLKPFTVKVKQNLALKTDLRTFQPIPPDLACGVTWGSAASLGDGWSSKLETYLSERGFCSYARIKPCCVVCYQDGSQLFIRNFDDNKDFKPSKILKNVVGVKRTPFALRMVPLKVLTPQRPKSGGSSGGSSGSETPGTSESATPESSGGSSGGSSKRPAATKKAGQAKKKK

Nuclease H [2] = target: T2, Nuclease H; assay: cell_activity; HEK293T; PAM CAC 3'
Nuclease H T783R = target: T3, Nuclease H T783R (synthetic construct, T783R); assay: cell_activity; HEK293T; PAM CAC
T3 chain: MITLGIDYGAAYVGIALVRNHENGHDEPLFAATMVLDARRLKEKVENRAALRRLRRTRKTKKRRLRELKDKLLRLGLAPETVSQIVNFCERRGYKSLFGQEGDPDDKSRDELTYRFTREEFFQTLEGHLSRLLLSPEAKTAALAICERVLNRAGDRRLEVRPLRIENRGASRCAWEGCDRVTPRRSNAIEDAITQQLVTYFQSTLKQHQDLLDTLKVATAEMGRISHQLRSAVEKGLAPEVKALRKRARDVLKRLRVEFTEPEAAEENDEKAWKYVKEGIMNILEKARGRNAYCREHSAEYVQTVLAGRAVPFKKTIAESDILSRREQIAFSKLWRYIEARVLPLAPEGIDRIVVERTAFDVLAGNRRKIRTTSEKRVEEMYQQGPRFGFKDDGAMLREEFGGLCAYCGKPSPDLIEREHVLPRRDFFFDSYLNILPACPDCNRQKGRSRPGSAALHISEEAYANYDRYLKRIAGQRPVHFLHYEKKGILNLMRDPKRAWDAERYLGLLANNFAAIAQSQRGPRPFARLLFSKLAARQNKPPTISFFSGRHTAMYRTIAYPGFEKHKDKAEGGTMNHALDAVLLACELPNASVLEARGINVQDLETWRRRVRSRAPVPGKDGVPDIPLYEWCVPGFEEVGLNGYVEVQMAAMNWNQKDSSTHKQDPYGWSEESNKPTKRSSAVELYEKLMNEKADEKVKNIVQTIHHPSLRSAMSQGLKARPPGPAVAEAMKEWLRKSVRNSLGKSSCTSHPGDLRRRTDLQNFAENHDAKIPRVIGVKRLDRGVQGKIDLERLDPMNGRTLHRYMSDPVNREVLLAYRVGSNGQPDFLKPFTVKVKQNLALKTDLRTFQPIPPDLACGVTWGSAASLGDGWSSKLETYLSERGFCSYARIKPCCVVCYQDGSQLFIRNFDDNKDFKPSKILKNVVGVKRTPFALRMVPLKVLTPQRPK
Experimental: as §1, with “Nuclease H” for “Nuclease S”
Indel ratios, referring to the percentage of NGS reads comprising indels, were calculated for the reference and for each variant. The indel ratios used for fold change calculations were the average of two technical replicates. To then calculate fold change in indel ratios, the indel ratio for each variant was divided by the indel ratio for the reference. […] Numbering is relative to the reference nuclease of SEQ ID NO: 64 (i.e., without an NLS).

B1: S EMX1-T4 RNA guide ; EMX1-T4 target (S) (ssRNA ; dsDNA)
RNA: AUGACUCCAGGCCUCCCCAAGUUGUAUUCGGAUGGGAGUAAAAGGUUGAGUACACCUGGAAACAAAACGACAUAAAGGUGUUCUCCCAUCUGUGUACAAAGAGCAGAUAUAUGAGUUGAUAAGUAAUAUGUUGCACGUAUGGACUUUGACAGUCUGUACCUCUGCGUGAAAGACAUAUUGCGUUAUUCAUAUAUCUGUGAGUCUGUUCUAAAUUUAAAGGUUUAGGGAA
DNA 1: ATGACTCCAGGCCTCCCCAA
DNA 2: TTGGGGAGGCCTGGAGTCAT
Nuclease S
  activity: 0.0265 indel ratio

B2: S VEGFA-T4 RNA guide ; VEGFA-T4 target (S) (ssRNA ; dsDNA)
RNA: CUCUACACAAAUCUCUCCAGGUUGUAUUCGGAUGGGAGUAAAAGGUUGAGUACACCUGGAAACAAAACGACAUAAAGGUGUUCUCCCAUCUGUGUACAAAGAGCAGAUAUAUGAGUUGAUAAGUAAUAUGUUGCACGUAUGGACUUUGACAGUCUGUACCUCUGCGUGAAAGACAUAUUGCGUUAUUCAUAUAUCUGUGAGUCUGUUCUAAAUUUAAAGGUUUAGGGAA
DNA 1: CTCTACACAAATCTCTCCAG
DNA 2: CTGGAGAGATTTGTGTAGAG
Nuclease S
  activity: 0.0333 indel ratio

B3: H VEGFA-T6 RNA guide ; VEGFA-T6 target (H) (ssRNA ; dsDNA)
RNA: GACUCUUCAAAUCCUCCCUUGUUUCAAUCAACCUGAUCUCUCUGCUUGCGCUGCAGGCUUCAUAAGAUCAGUAGGUUGAAAAGAGCAUCCGUCCGACAUGCACUCCGGGAUGGGGCAGUCCCGGCUCUUGCGGUUCCCGAUGCAGUUAUGUGUCCGCGGAACACGGUGUCGGACACGUCGCAAGACAGGAUGUGAGCCCAUUAUCCACAUUAGGAUCAAUGUACGCAUGAGCAGUCCGCAAUGCCGGGGACGCU
DNA 1: GACTCTTCAAATCCTCCCTT
DNA 2: AAGGGAGGATTTGAAGAGTC
Nuclease H [1]
  activity: 0.0378 indel ratio

B4: H EMX1-T5 RNA guide ; EMX1-T5 target (H) (ssRNA ; dsDNA)
RNA: GAGGCCUGGAGUCAUGGCCCGUUUCAAUCAACCUGAUCUCUCUGCUUGCGCUGCAGGCUUCAUAAGAUCAGUAGGUUGAAAAGAGCAUCCGUCCGACAUGCACUCCGGGAUGGGGCAGUCCCGGCUCUUGCGGUUCCCGAUGCAGUUAUGUGUCCGCGGAACACGGUGUCGGACACGUCGCAAGACAGGAUGUGAGCCCAUUAUCCACAUUAGGAUCAAUGUACGCAUGAGCAGUCCGCAAUGCCGGGGACGCU
DNA 1: GAGGCCTGGAGTCATGGCCC
DNA 2: GGGCCATGACTCCAGGCCTC
Nuclease H [2]
  activity: 0.032 indel ratio
Nuclease H T783R
  fold change in indel ratio vs reference: 4.33 fold indel vs reference
